These results are taken from a protein production outcome set (Wang et al. 2014).

The nature of this series: label from the status in PepcDB records.
Take “MLDTLVFGCVAFPLLAALAVYFVRGEAARRLIVPGAVAVTALSALGMAGSGPIMFAPKSFLGIGLDGLIAFLDFALLFYILYLGTKMRHLLIMGMTVLQIVGLIYLEFFLMDHGATVPGFYVDSLSLTMVLIISFVGGLICVYGLGYMKEHEEHLHLPQTKQPRFFFFVVLFLGAMNGLVLSNNLAWMYFFWEITTLCSFMLIGHDGTDEAKTNATRALWMNMVGGVAFVFALLFLQKGMGTLSVQDILARAVEPEMRTTAVLLPMAMLCLAGFTKSAQLPFQSWLCGAMVAPTPVSALLHSSTMVKAGVYLILRMAPGYAGTALSTGVALFGAFTFIVTSALAAGQSNGKKILAYSTIANLGLIVACAGINTAASVAAAMMLIIFHAISKGLLFLCVGAIEQKIGSRNIEDMRNLFERMPRTAVITVIGIVTMMLPPFGMLIAKWMAIESAAGAMSAMPLLVIMIALGSALTVLFWARWAGIMLGSSRPGFGPMQEEQDITIRLPLVSLVGGALVLSLLAPFVYTGLVEPAIAMYAKASAYGVSIGTIGNTMGAFAVYPLYLLLGAGFYYAWRAARNTPDSAASLPYMGGSQMTQDGVVGFNGPMNQFVPNAAGNYYLEKLFGEAQLTKPGNVVAIVLLILMIGGML”: the protein production entry is listed as “failed”.
In the case of “MEGLLIDYVQPGSIAEELEIEAGDRLVAINGQDLRDIIDFSFYAHDEELALEIVKPSGDHWEAEIERDGDEPLGLVFAPPVPAQCGNKCVFCFVHQLPKGLRRPLYVKDEDYRLSFLYGNYVTLSNIRRGDLDRIVAQRLSPLYISVHATNPALRERLLGRSEILPILDLMRELAAARIVMHSQIVLCPGLNDGVELEKTVRDLAGLHPWVESLAIVPIGLTKHRRGLPALEPVTASYAETFVQNWQPAAERLERELGAPFLFIADEFYIKAGLPFPPLETYGDLPQIENGVGMIPLFLDESERVLKKARKGKPVTVTVVTGESPYRYLAAFLERLSVRTGATFKPVAVHNRLFGESVTVTGLVAGSDIVEELSGRDLGDAVLVPDVMLKEGEGIFLDDLSVDGLGKSLGTRVLVVEATPQGVVDALRRVRSMLEHHHHHH”, the protein production result is “failed”.
“MSLAARLIRSSRSNTFGIITDYVSTTPYSVDIVRGIQDWANANGKTILIANTGGSSEREVEIWKMFQSHRIDGVLYVTMYRRIVDPESGDVSIPTVMINCRPQTRELLPSIEPDDYQGARDLTRYLLERGHRRIGYIRLNPILLGAELRLDAFRRTTSEFGLTENDLSISLGMDGPVGAENNYVFAAATEMLKQDDRPTAIMSGNDEMAIQIYIAAMALGLRIPQDVSIVGFDDFRTVTMALKPELTTAALPYYDLGREGAKWLNDLIAGEKIYPGSRVVSCKLVERSSAAFGEGHHHHHH”: the protein production result is given as “not failed”.
In the case of “MTRAINDPGNEDPGSLLETDADALLGGAAAQAPEERCRLAAQACIRACERYLALCTESSREQRQHAGDCADLCRLAALLLERRSPWAPAACELAARYALACAERCDGDEPLERECAGACRRFVEACRPLLPA”, the protein production result is reported as “not failed”.
As for “MIDILNLALPYFGLIFVGFACGRWKKLPEQGLVWMNFFLVFVSLPALFFRIMSKTPFEELNNLPFVLATTLATAIAFFLSGMLGRLIGKLSMREATMAALSGGYGNIGYMGPGLALAVLGTQAAAPTALIFCFDTIFLFSIVPLGMALTAADKRPLIPTIIAVLREILFHPLIVAAYCGAAAAAFHVELPVAVDKMLAFLQNAAAPVALFTLGVTVALRPFGRVPWEIPSLVAVKLLLHPVIVFCLVLAFGPFSPEWAATAVLMASLPPALNVFVIARQYNTWVEPASVAVLIGTFMSVVTLTTVMWLIRTGQIPFPA”, the entry is “failed”.
For the sequence “MNMIEPAPVRKSVTVRTSPQQAFDVFVSGMGTWWIKGHSLTQSGQKTVVVEAVAGGRWYEIGNAGEECEWGRVIACDRPNRVLFDWQLNADFDYDPGLHTEVEVLFEANGEGGTTVILEHRHLEKYGVKAKEMRGIFDSENGWGGLLASYMEKAAA”, the protein production entry is listed as “failed”.
Take “MNSFYSQEELKKIGFLSVGKNVLISKKASIYNPGVISVGNNVRIDDFCILSGKVTIGSYSHIAAYTALYGGEVGIEMYDFANISSRTIVYAAIDDFSGNALMGPTIPNQYKNVKTGKVILKKHVIIGAHSIIFPNVVIGEGVAVGAMSMVKESLDDWYIYVGVPVRKIKALEHHHHHH”: the protein production entry is given as “not failed”.
To “MRRKERRESMKKHRQLLALFICLVMSVSLLTGYSETKAATEEPTQSAEQDATQETAETREITDMAGRKVTVPTAENIESVFSAGPVAAIFLYMVVPDKLLGWNYELNDVEKSIILDKYQDLPNFGMGDAVNYEAVIAANPTIAINSGKINDAMVSDCDALSESLGIPVVAVDNELNNSAEAFRFMGELLGVEDHAEELAQYAEQVFTDINVLSDIPEEKKVSVYFGNGEDSLETAPRGSQHAQILDAINAVNVADLELGDGSRVQISAEQLLAWDPDVIVVNGEPKADKSGSSAAEDILSNPDYASLKAVQDQKVYGTPNAPFSWVDRPAGPNRLIGMRWFSALIYPEYIKCDINEEIHKFFDLFYHVDLSDEQLENVLKGTL” belongs “failed”; to “MIKKARKFIPFFLIGSLLAEDNGWYMSVGYQIGGTQQFINNKQLLENQNIINSVTQSAINIAGPTTGLITLSSQTVIDALGYGVSNTVGNQLEGISNILNQIGKRKDFYSSRQISSISQQIIGLKGSSDPLKAHSSQITAKLLSNTQSAFDQGIALSTNIISSINSLNPSNNTQEVKKQLQNTAQSMTELLQQIEHSITKTTSTTYAQSLLSNLTDAVNASSNNTAYVSALVNALNTLGVGVFPTTTTTHVVLNPPGQVVFYPTNSILGSTSSNSNNQQQYNNTLLMNTLQGTLSANTQNNPNGCANQVQCLEQFIQNLAPLAATPTSNNQANQQVQAIAQKLQSVAINTLDNNAINNTTYNLNNLHNALNFQAYESTIEQYNNALKQISWISFTEPKNLLKNTSNNYQIGTVTNAQGQNISAYDCMTATGSLSSNASSGISCSATSSTSSTNSFDNSLVATSKVQTINGKEQIGVNSFNLVSQVWSVYNSLKTSEENLQKNANILCANGTQSGTSSCNSSSGGLSISGNAQLQNILSPTSGTTTNTQAKSNAPKLKAMVVVNNEEEAKTANLAQSSGTTTQSPNSTVMGALNTVLQNVSNFQQSIQNAFQNQESNIQAWANAIYNTNGSQSQEMTPNNNQDLRIQLRANFYQLINTINQQVPTDMNALINQSQQTQQTSGSASNNNACASGMSGSNGNWCYQQWSDSKAYYSGLQSALGYQTQATTQSGSNGGNSITYNVQQITLTSNGLLNQIITNLKSVNGGNGASGTGSGNGTSQINTAYQMLTDASDGKLGTYSSSSGSNNGYTPCNSTNGSNKTSGNNCYEPNKQQNATTATATTDSNLQKVYNDAQKIANIIASSGNNKGVENGLKQFFEALKNNSSSLSNLCGNGSSGSSGTTCSGWLINLLGAIPTNGVSDTNNLINLLTEFIKTAGFIQNNDSSVSTSLTSAFQAITSAISQGFQALQNDISPNAILTLLQEITSNTTTIQSFSQTLRQLLGDKTFFMAQQKLIDAMINARNQVQNAQNQANNYGSQPVLSQYAAAKSTQHGMSNGLGVGLGYKYFFGKARKLGLRHYFFFDYGFSEIGLANQSVKANIFAYGVGTDFLWNLFRRTYNTKALNFGLFAGVQLGGATWLSSLRQQIIDNWGSANDIHSTNFQVALNFGVRTNFAEFKRFAKKFHNQGVISQKSVEFGIKVPLINQAYLNSAGADVSYRRLYTFYINYIMGF”, “failed”; to “MNYGFVKVAAAVPRVKVADCKFNSERLEGLITIAEGKGVQILTFPEMCITGYTCGDLFAQQLLLEQAEMALIQILNSTRQLDIISILGMPVVVNSTVINAAVVIQKGKILGVVPKTYLPNYKEFYEQRWFTSALQVSENSVRLCGQIVPMGNNLLFETAETTFGIEICEDLWATVPPSSSLALQGAEIIFNLSADDEGIGKHNYLCSLISQQSARCISGYVFSSSGFGESTTDVVFAGNGLIYENGYLLARSERFCMEEQLIINEIDVECIRAERRVNTTFAANKANCPGKEAVRISTEFVNSKDLNLTRTFNPHPFVPQGNELNSRCEEIFSIQIAGLAQRLLHTGAKTAVIGISGGLDSTLALLVCVKTFDKLGLSRKDILGITMPGFGTTDRTYHNAIDLMNSLGVSIREISIREACIQHFKDIGHDLNIHDVTYENSQARERTQILMDIANQTWGMVIGTGDLSELALGWATYNGDHMSMYGVNAGIPKTLVKHLVQWVAENGMDETSKATLLDIVDTPISPELEHHHHHH”, “not failed”.
As for “MRKLAAFLGLVGLLSLGLAQSAQEILDRVEKNLSTPWQATVQGRIQGPGGEEELLARVYALPQARLFRVEFLKPGSLEGNFTVITEKEVWNYLYLTNQLVISPREKAKIQGLGFAPQGLGDLKALSEQVDLRLEGEVRLPEGMAWKLVGRSKENQGFAAMELYILKADPRPLRFVFLDEKGKVLADLKVVEFKRTNLTEAQLKRYPKDAQVVRR”, the protein production entry is on record as “not failed”.
For “MNKNTWIIGFTLFAMFFGAGNLIFPTQLGLESGHFFWPAILAFALTGIGLPLLGVVVGALDKHGYIGSFNKISPRFSLIFLIIIYLTIGPLFAIPRTASTSFEMSVTPIAQNSGNLALFIFTVIYFLIVLYLCLNPNKMIDRIGSLLTPLLLITIVAMIIKGFVDFSGHSSNYGMTNAYHSNLSGFSQGFTQGYLTMDAIASIAFSMIVVNAIKTTGIQHADKIFKQTIIAGLIAAIALVFIYISLGYIGNHINIPSDTLKELKAKDQNIGTYLLTTMATKGFGTFGKYLLGIIVSLACLTTACGLIVSVSEYFHRILPKIPYKVFVIFFILVSFILANQGLNSVIKMSVPVLSVIYPVAITVILLILIARFIPTKRIAQQIPLIIVAIESILSLITTQGWIRISFIDDLPLKEYSLEWFPIAVVATLVGYMISYFVKQSNIVYQKE”, the protein production entry is “failed”.
With “MDALLILGGLLLMVAGYIWVIVLAFGTGLLWGYGSLFPPVALAYIGVHWRTARKGVGLAALGCIPLVVGLALLASHDAARLEAILSLRWLKPEARPPAELAIALSGEFNGKPFAPQSGELIGGVLSLRQGHDFYAQRELQIRLPAQPLGALRLDVLPEDGGALPEVELSWLQPDQDLPEARRLLRGYTLHLDLRPKAPNRLEGEFHLSLPSDYRTTLSGHVELYTDRLRYRHGKVDLGYDSDDTLALVLRDYLQRRFASRDVSLVRAPSWRAASHARPLRIEALVAGQAQVLELTLEKNARREWTVRGDAFPALPAEPATVAAAAPPEPQALPAPGNATLDLELVQVEPQRYSQRLVKATTVRGRIAEGRFTGLDSEGRLVIRREMPGAGEASYLLRPAEIARLELLER”, the protein production result is “failed”.
With “MMRMKVKVVVNGKEYEVEVEEVMPGKFRVTLEGETYEVETSAGFVTSPKQVQVPTPAPTPAPAPTPTPAPAPSSKTVVSENVVSAPMPGKVLRVLVRVGDRVRVGQGLLVLEAMKMENEIPSPRDGVVKRILVKEGEAVDTGQPLIELG”, the protein production result is recorded as “not failed”.
For “MRIYLFLNKNYKIFILFLILILNSKLAYSQRLIRIGKEEMKNKNYIQAIETLSDAIKKYPKVQLGYYFLSIAYRENNQLTEAEGALLDGIAVGGEIDYILYYELGNIMFNRGEGYYPLAIKYYSNSIKSRPNYDSALLNRANAYVQQGKITSKEKEYQKAWDSYTMAIHDYSQFITLRSKTEKKDSILLIISYLRNEKINLEQLDKSLKGRTEHIVYAKEDKNQILKDSFKDNLETNSLIELEKLNWQEELYIDE”, the protein production entry is “failed”.
“MRNRTLADLDRVVALGGGHGLGRVLSSLSSLGSRLTGIVTTTDNGGSTGRIRRSEGGIAWGDMRNCLNQLITEPNVASAMFEYRFGGNGELSGHNLGNLMLKALDHLSVRPLEAINLIRNLLKVDTHLIPMSEHPVDLMAIDDQGHEVYGEVNIDQLTTPIQELLLTPNVPATREAVHAINEADLIIIGPGSFYTSLMPILLLKEIAQALRRTPAPMVYIGNLGRELSLPAANLKLESKLAIMEQYVGKKVIDAVIVGPKVDVSAVKERIVIQEVLEASDIPYRHDRQLLHNALEKALQALGLEHHHHHH”: the protein production result is on record as “failed”.
